Assay results taken from IntAct's records for PubMed 31515488.
Each block holds one substance with its values, some of them ahead of it.

Assays:
kcc2d_human CAMK2D = kcc2d_human CAMK2D (UniProt Q13557)
thap1_human THAP1 = thap1_human THAP1 (UniProt Q9NVV9)
mdfi_human MDFI = mdfi_human MDFI (UniProt Q99750)
rtraf_human RTRAF = rtraf_human RTRAF (UniProt Q9Y224)
zbt14_human ZBTB14 = target: T1, zbt14_human ZBTB14 (UniProt O43829)
T1 sequence: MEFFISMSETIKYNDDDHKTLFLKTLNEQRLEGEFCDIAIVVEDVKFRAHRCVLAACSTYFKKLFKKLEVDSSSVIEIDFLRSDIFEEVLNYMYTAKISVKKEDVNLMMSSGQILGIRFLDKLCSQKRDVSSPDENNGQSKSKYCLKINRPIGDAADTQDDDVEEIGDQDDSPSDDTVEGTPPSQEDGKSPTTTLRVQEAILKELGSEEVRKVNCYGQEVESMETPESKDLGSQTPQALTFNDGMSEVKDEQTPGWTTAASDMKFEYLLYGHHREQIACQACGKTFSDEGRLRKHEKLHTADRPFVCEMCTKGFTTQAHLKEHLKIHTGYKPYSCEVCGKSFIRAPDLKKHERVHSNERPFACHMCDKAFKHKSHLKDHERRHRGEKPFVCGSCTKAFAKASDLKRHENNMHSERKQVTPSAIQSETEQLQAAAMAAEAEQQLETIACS

tmm79_human TMEM79 = target: T2, tmm79_human TMEM79 (UniProt Q9BSE2)
T2 sequence: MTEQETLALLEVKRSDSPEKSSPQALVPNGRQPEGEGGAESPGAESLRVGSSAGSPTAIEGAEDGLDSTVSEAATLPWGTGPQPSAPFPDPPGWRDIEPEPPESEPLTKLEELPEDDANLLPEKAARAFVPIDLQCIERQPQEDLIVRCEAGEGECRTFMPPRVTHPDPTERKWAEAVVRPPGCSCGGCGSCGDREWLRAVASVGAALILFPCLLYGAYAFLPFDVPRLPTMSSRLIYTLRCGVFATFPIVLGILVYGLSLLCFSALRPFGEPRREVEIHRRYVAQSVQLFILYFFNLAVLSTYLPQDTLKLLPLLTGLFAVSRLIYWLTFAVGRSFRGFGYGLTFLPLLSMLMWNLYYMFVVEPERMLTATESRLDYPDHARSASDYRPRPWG

cxcl9_human CXCL9 = target: T3, cxcl9_human CXCL9 (UniProt Q07325)
T3 sequence: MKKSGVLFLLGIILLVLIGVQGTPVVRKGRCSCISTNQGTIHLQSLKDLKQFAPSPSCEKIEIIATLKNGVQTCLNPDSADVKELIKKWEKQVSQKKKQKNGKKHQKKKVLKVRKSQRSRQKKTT

efs_human EFS = efs_human EFS (UniProt O43281)
fund1_human FUNDC1 = fund1_human FUNDC1 (UniProt Q8IVP5)
zn446_human ZNF446 [1] = target: zn446_human ZNF446 (UniProt Q9NWS9)
zn446_human ZNF446 [2] = target: zn446_human ZNF446 (UniProt Q9NWS9); remark: listed apart in the source
trim1_human MID2 [3] = target: trim1_human MID2 (UniProt Q9UJV3)
dzip3_human DZIP3 = dzip3_human DZIP3 (UniProt Q86Y13)
rbtn2_human LMO2 = rbtn2_human LMO2 (UniProt P25791)
zn446_human ZNF446 [4] = target: zn446_human ZNF446 (UniProt Q9NWS9); remark: listed apart in the source
kr101_human KRTAP10-1 = kr101_human KRTAP10-1 (UniProt P60331)
trim1_human MID2 [5] = target: trim1_human MID2 (UniProt Q9UJV3); remark: listed apart in the source
mtus2_human MTUS2 = mtus2_human MTUS2 (UniProt Q5JR59)

Substance: Large ribosomal subunit protein uL11m (Homo sapiens) (from UniProt Q9Y3B7) R142C
effect of a mutation on the interaction (kcc2d_human CAMK2D): with no effect
effect of a mutation on the interaction (thap1_human THAP1): with no effect

Substance: Nuclear transition protein 2 (Homo sapiens), Q05952 R131W
effect of a mutation on the interaction (mdfi_human MDFI): with no effect

Substance: Tyrosine-protein kinase Yes (Homo sapiens), P07947 V52L
effect of a mutation on the interaction (fund1_human FUNDC1): with no effect

Substance: Zinc finger and SCAN domain-containing protein 16 (Homo sapiens), Q9H4T2 R137Q
effect of a mutation on the interaction (zn446_human ZNF446 [1]): with no effect

Substance: Zinc finger protein 24 (Homo sapiens), P17028 T85M
effect of a mutation on the interaction (zn446_human ZNF446 [2]): with no effect
effect of a mutation on the interaction (trim1_human MID2 [3]): with no effect
effect of a mutation on the interaction (dzip3_human DZIP3): with no effect
effect of a mutation on the interaction (rbtn2_human LMO2): with no effect

Substance: Zinc finger protein 559 (Homo sapiens), Q9BR84 L6W
effect of a mutation on the interaction (kr101_human KRTAP10-1): with no effect

Substance: Zinc finger protein 785 (Homo sapiens), A8K8V0 R212C
effect of a mutation on the interaction (trim1_human MID2 [5]): with no effect
effect of a mutation on the interaction (mtus2_human MTUS2): with no effect

Now from value to substance:

effect of a mutation on the interaction (rtraf_human RTRAF): with no effect
Substance: Protein FAM98A (Homo sapiens), Q8NCA5 S283G

effect of a mutation on the interaction (zbt14_human ZBTB14): with no effect
Substance: Small ribosomal subunit protein eS7 (Homo sapiens) (from UniProt P62081) R106Q

effect of a mutation on the interaction (tmm79_human TMEM79): with no effect
effect of a mutation on the interaction (cxcl9_human CXCL9): with no effect
Substance: Surfactant protein C (Homo sapiens) (from UniProt P11686) R167Q

effect of a mutation on the interaction (efs_human EFS): with no effect
Substance: Tyrosine-protein kinase Fyn (Homo sapiens), P06241-3 V410M

effect of a mutation on the interaction (zn446_human ZNF446 [4]): with no effect
Substance: Zinc finger protein 397 (Homo sapiens), Q8NF99 P169S
